Results published in IntAct's records for PubMed 19070620.

Molecular target: T1, rogf8_arath ROPGEF8 (UniProt Q9LV40)
T1 sequence: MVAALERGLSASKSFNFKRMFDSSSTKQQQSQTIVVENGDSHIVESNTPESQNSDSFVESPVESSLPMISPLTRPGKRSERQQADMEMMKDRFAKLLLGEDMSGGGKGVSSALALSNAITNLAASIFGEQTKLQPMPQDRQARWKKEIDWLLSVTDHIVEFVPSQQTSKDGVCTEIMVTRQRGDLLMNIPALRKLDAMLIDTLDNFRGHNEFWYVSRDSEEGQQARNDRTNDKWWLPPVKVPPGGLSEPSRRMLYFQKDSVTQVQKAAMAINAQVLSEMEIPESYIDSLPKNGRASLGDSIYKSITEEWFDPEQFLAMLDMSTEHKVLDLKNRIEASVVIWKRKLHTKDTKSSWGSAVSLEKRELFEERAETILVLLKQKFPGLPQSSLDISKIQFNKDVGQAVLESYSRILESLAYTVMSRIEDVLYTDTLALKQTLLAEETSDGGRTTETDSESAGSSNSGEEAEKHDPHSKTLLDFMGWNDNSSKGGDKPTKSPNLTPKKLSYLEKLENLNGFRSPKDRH

Ras-related C3 botulinum toxin substrate 1 (Homo sapiens) (from UniProt P63000) P73C
effect of a mutation on the interaction: increasing interaction
